From article PMC7960600, “A DARPin targeting activated Mac-1 is a novel diagnostic tool and potential anti-inflammatory agent in myocarditis, sepsis and myocardial infarction” (Basic Research in Cardiology, 2021)

Target: T1, human ICAM-1 (R&D Systems) (human, UniProt P05362 28-480)
T1 construct: ICAM-1, human, recombinant, bought; No catalogue number printed; also called recombinant human ICAM-1; source: bought: R&D Systems
Test: ELISA; 96-well Maxisorb plates coated with 0.1 µM human or mouse ICAM-1 (or BSA, 30 µM); recombinant human or mouse αM I-domain added; anti-His-HRP, OD 450 nm
Conditions: both partners purified

T1 sequence (P05362 28-480): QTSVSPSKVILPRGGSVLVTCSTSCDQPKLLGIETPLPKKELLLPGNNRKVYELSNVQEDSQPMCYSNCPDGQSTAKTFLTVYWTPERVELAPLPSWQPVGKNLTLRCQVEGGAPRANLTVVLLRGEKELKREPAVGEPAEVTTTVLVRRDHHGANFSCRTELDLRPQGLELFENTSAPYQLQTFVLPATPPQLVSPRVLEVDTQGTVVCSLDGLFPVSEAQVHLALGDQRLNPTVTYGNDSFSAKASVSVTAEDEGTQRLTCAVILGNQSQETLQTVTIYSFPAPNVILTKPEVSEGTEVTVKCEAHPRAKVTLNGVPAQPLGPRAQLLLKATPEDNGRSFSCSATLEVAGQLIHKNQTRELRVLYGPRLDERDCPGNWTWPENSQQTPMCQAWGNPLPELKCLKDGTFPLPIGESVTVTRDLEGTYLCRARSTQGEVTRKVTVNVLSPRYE

binding result: binds
B1: recombinant human αM I-domain (wild type) (domain or fragment)
chain: RQQPQKFPEALRGCPQEDSDIAFLIDGSGSIIPHDFRRMKEFVSTVMEQLKKSKTLFSLMQYSEEFRIHFTFKEFQNNPNPRSLVKPITQLLGRTHTATGIRKVVRELFNITNGARKNAFKILVVITDGEKFGDPLGYEDVIPEADREGVIRYVIGVGDAFRSEKSRQELNTIASKPPRDHVFQVNNFEALKTIQNQLREKIFAIEGTQTGSSSSFEHEMSQEGFSAAALEHHHHHH
notes: I-domain of the αM chain (CD11b) of human Mac-1; no start methionine or leader is printed; source: E. coli BL21 DE3 (vector pET-20b(+)), purified (Ni beads, dialysed against PBS); not shown: His6, C-terminal, kept
